Results published in US20230242654A1, “REAGENTS FOR EXPANDING CELLS EXPRESSING RECOMBINANT RECEPTORS” (Juno Therapeutics, Inc., priority 2017, published 2023).

What was measured:
[1] = tested on: anti-CD19 CAR-T cell compositions; experiment: Long-term (15 day) stimulation with anti-ID conjugated beads of CAR-T compositions made with compounds; type: cell-based, human; details: 1:1 bead:cell, 15 days, counted every 5 days
Method: Engineered T cell compositions containing T cells that express an anti-CD19 CAR were generated from three separate donors in the presence of different compounds or a vehicle control.
The ability of the cells from the different T cell compositions to expand following stimulation of the CAR was assessed by incubating cells of the generated anti-CD19 CAR-T cell compositions with beads surface conjugated with an anti-idiotype antibody specific to the anti-CD19 CAR. The anti-ID conjugated beads were incubated with cells at a 1:1 bead:cell ratio in wells of 24-well G-rex expansion vessels (Argos Technologies) for 15 days. The total live T cells per well was determined by counting cells in the cultures every 5 days (FIG. 25A). The mean area under the curve (AUC) of the function of T cell number over time was calculated relative to the AUC of cells expanded with media only (FIG. 25B).
Secondary cytokine response after stimulation with antigen-expressing cells was assessed on CAR-T cells from the T cell compositions harvested at day 11 following expansion with anti-ID conjugated beads. The anti-ID stimulated cells were incubated with irradiated K562-CD19 target cells at an effector:target ratio of 1:1 for approximately 16 hours. Supernatant was collected and TNF-alpha, IFN-gamma, and IL-2 cytokine production were measured using a Luminex Multiplex Assay. […]

[2] = tested on: CD4+ or CD8+ CAR-expressing T cells; experiment: Expansion after serial restimulation, 4 rounds in 14 days; type: cell-based, human
Method: The ability of cells to expand ex vivo following repeated stimulations may be a potential surrogate for capacity of CAR+ T cells to persist (e.g. following initial activation) and/or is indicative of function in vivo (Zhao et al. (2015) Cancer Cell, 28:415-28). CAR+ T cells were generated as described above and thawed CD4+ or CD8+ CAR-expressing T cells were plated separately at 50,000 CAR+ cells/well. Anti-ID B-1 conjugated beads were added to cells at a 1:1 or 1:5 cell:bead ratio in the presence or absence of cytokines as described in Example 10. As a control, anti-CD3/anti-CD28 magnetic beads were added to cells at a 3:1 cell:bead ratio in the presence or absence of the cytokines. Cells were harvested every 3-4 days and counted, and restimulated with new […] using the same culture conditions after resetting cell number to initial seeding density for each round. A total of 4 rounds of stimulation during a 14 day culture period were carried out. For each round of stimulation, the number of doublings was determined.

[3] = Stability of antibody conjugated beads (supernatant SDS-PAGE, Coomassie blue); type: physicochemical
Method: To assess stability of the anti-ID conjugated beads, the beads were pelleted, the supernatant was removed and loaded on a 4-12% Bis-Tris SDS-PAGE gel and the gel was stained with Coomassie blue. As a control for total protein conjugated on the beads, the pelleted beads were boiled in 4× (lithium dodecyl sulfate) LDS sample buffer at about 70° C. for 20 minutes and approximately 12.5 μL or 25 μL boiled supernatant also was run on SDS-PAGE gel and assessed by Coomassie blue. Approximately 2.5 μg or 5.0 μg anti-ID antibody that had not been conjugated to the beads (positive control) or 5 μL 0.1% HSA (negative control) also were assessed by SDS-PAGE and Coomassie blue staining.
Stability of the antibody conjugated beads was assessed by pelleting the antibody-conjugated beads, running the resultant supernatant on an 4-12% Bis-Tris gel, and staining the gel for protein with Coomassie blue. As a control for total protein conjugated on the beads, a 10 μL sample of supernatant from pelleted beads that were boiled in LDS sample buffer also was assessed. […] Bands corresponding to the antibodies were detected in the sample with the supernatant from the boiled sample.
Stability of the antibody conjugated beads was assessed by pelleting the antibody-conjugated beads, running the resultant supernatant on an 4-12% Bis-Tris gel, and staining the gel for protein with Coomassie blue. […]

[4] = tested on: T cells transduced with anti-CD19 CAR having an scFv derived from FMC63; experiment: Stimulation of T cells cultured with anti-idiotype antibody-conjugated beads up to 14 days; type: cell-based, human
Method: The FMC63-derived scFv-specific anti-ID B-1-conjugated beads were incubated with T cells. CD3-purified T cells were isolated by immunoaffinity-based enrichment from leukapheresis samples from healthy donors. Isolated cells were transduced with a viral vector encoding an anti-CD19 CAR having an scFv derived from FMC63. The viral vector construct further encoded a truncated EGFR (EGFRt), which served as a surrogate marker for CAR expression; the EGFRt-coding region was separated from the CAR sequence by a T2A skip sequence. After transductions, cells were expanded in culture and frozen by cryopreservation.
For T cells stimulation studies, thawed CD4+ or CD8+ CAR-expressing cells were separately seeded at approximately 50,000 total cells per well. In some cases, the culture media was additionally supplemented with cytokines as follows: for CD4+ cells, approximately 1200 IU/mL recombinant IL-7, 20 IU/mL recombinant IL-15 and 100 IU/mL recombinant IL-2; for CD8+ cells, approximately 200 IU/mL recombinant IL-2 and 20 IU/mL recombinant IL-15. Anti-ID B-1 conjugated beads were added to cells at a 1:1 or 1:5 cell:bead ratio and incubated up to 14 days with a 50% media exchange every 2-3 days. As a positive control, cells were cultured with anti-CD3/anti-CD28 magnetic beads at a 3:1 cell:bead ratio in the presence or absence of the indicated cytokines.
At various times of culture, CD4+ or CD8+ transduced cells (as detected by anti-EGFR for expression of the surrogate marker) were assessed for expansion, PD-1 expression and viability.

B1: anti-ID conjugated beads: FMC63-derived scFv-specific anti-idiotype antibody (B-1 in Examples 10-14) covalently coupled to tosyl-activated magnetic beads (conjugate)
heavy: EVQLQQSGPELVKPGASVKMSCKASGYTFTDYYMKWVKQCHGKSLEWIGDINPNNGGTDYNQNFKGKATLTVDKSSSTAYMQLNSLTSEDSAVYYCAREGNNYGSRDAMDYWGQGTSVTVSSAKTTAPSVYPLAPVCGDTTGSSVTLGCLVKGYFPEPVTLTWNSGSLSSGVHTFPAVLQSDLYTLSSSVTVTSSTWPSQSITCNVAHPASSTKVDKKIEPRGPTIKPCPPCKCPAPNLLGGPSVFIFPPKIKDVLMISLSPIVTCVVVDVSEDDPDVQISWFVNNVEVHTAQTQTHREDYNSTLRVVSALPIQHQDWMSGKEFKCKVNNKDLPAPIERTISKPKGSVRAPQVYVLPPPEEEMTKKQVTLTCMVTDFMPEDIYVEWTNNGKTELNYKNTEPVLDSDGSYFMYSKLRVEKKNWVERNSYSCSVVHEGLHNHHTTKSFSRTPGK
light: QIVLTQSPALMSASPGEKVTMTCSASSGVIYMYWYQQKPRSSPKPWIYLTSNLASGVPARFSGSGSGTSYSLTISSMEAEDAATYYCQQWSSNPLTFGAGTKLELKRADAAPTVSIFPPSSEQLTSGGASVVCFLNNFYPKDINVKWKIDGSERQNGVLNSWTDQDSKDSTYSMSSTLTLTKDEYERHNSYTCEATHKTSTSPIVKSFNRNEC
- total live T cells per well [1]: initial expansion that was followed by a decline in cell number
- expansion of CAR-expressing (EGFRt+) CD4+ cells after restimulation ([2]; 1:1 or 1:5 cell:bead, 4 rounds): continued cell expansion
- extent of expansion of CD4+ cells ([2]; versus anti-CD3/anti-CD28 beads): the extent of expansion was greater
- expansion of CD8+ T cells ([2]; versus anti-CD3/anti-CD28 beads, particularly without recombinant cytokines): expansion was somewhat greater
- stability of the conjugation [3]: the conjugation was stable
- extent of expansion of CD4+ and CD8+ T cells ([4]; 1:1 or 1:5 cell:bead, versus control anti-CD3/anti-CD28 magnetic beads): The extent of expansion was greater
- percent viability of CD4+ and CD8+ T cells ([4]; cultured in the presence of cytokines): remained consistently high
- surface expression of PD-1 on the CD4+ cell subset ([4]; days 3, 7, 10 and 14): substantially lower or undetectable
